Measured values: publication PMC4492466

Target: Cdh1 (UniProt Q9R1K5)
Experiment: Flag IP of Cdh1, HA-FMRP blot
Conditions: reference: wild type FMRP; sites S499

Substance: FMRP (from UniProt P35922) S499A
- binding against the reference: stronger
